Results published in article PMC6402204, “Production Optimization of an Active β-Galactosidase of Bifidobacterium animalis in Heterologous Expression Systems” (BioMed Research International, 2019).

Substrate: O=[N+]([O-])c1ccccc1O[C@@H]1O[C@H](CO)[C@H](O)[C@H](O)[C@H]1O
Experiment: purified protein
Assay type: biochemical, Bifidobacterium animalis
Settings: pH 6.0, 100 mM Na2HPO4-citric acid, 60°C, oNPG 1.38-25 mM, free enzyme

B1: bG42-106 (Bifidobacterium animalis subsp. lactis) (protein)
chain: MSASTQHRAHRWPQPLPGNDRKIWFGADYNPDQWPEDVQDEDIRLMKQAGVNIVSLAIFSWANIETSDGNFEFDWLDRVIDKLYKAGIAVDLASATASPPMWLTSAHPEVLRRDEQGHVIWPGARQHWRPTSPTFRTYALRLCREMAEHYKDNPAIVSWHVGNEYGCHNYFDYSDDAVQAFREWCRDRYGTIDKVNAAWGTNFWSQRLNSFEEILPPRYVGGEGNFTNPGRLLDFKHFCSDALKEFFCAERDVLSEVTPNIPLTTNFMVSASQNTLDYDDWAHEVDFVSNDHYFTPGSWHIDELAYSASLVDGISRKKPWFLMEQSTSAVNWREINPRKEPGELIRDSMLHLAMGADAICYFQWRQSRSGAEKFHSAMLPLAGEHSQIYRDVCALGADLDTLSDAGILRSKLSKARVAIVQDIQSEWATEHTATPTQHIREWTEPLDWFAAFANRGVTADVTPIHAQWDTYDAVVIPCVYLFSEEMAERLRTFVRNGGKAFVTYYSALADEHDRLHTEGWPGLIGDVVGVRIEEHCPLGTLFPGMLDHLDVSNGTVVHDLADVIDAIADDTTVLATFEADPATGMDGRAAITVHPYHEGGVAYIAGKLGRDGISQSLPEICAALGFELDADPRAGDVLRVVREQEDGAIFEFLFNRTRNTVTADRPAGDMLICSLATDSTDKVTLEPNGVLAFRR
notes: full-length, 695 residues, 78 kDa calculated, no signal peptide; C-terminal His6 (pET-30a(+)), E. coli BL21(DE3), Ni-NTA purified; homodimer by native PAGE (~180 kDa)
  Km: 5.14 mM
